US20260275311, “CRISPR NUCLEASE POLYPEPTIDES AND GENE EDITING SYSTEMS COMPRISING SUCH” (ARBOR BIOTECHNOLOGIES, INC., published 2026)

T1: Nuclease K D582R/I53R/T734R (D582R,I53R,T734R)
T1 chain: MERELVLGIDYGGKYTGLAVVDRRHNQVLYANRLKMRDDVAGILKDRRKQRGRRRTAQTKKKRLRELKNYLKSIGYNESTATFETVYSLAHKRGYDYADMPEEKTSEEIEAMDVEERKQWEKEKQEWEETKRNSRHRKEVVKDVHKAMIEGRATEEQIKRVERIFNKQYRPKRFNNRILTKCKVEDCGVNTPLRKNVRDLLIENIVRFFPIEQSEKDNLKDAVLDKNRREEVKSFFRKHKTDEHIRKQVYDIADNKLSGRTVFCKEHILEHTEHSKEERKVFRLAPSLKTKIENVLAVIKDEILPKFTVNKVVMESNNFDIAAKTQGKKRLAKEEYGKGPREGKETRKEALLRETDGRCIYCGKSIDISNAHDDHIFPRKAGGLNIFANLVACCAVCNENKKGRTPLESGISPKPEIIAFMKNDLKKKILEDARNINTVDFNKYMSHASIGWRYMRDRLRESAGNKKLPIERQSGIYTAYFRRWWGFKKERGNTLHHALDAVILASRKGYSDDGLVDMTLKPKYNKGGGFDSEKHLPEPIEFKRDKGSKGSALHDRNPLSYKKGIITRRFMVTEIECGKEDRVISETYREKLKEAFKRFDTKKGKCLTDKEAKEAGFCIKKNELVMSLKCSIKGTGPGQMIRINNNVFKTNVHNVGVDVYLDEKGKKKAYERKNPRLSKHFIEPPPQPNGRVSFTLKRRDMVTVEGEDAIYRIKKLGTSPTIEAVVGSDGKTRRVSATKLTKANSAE

T2: Nuclease K D582R/G42R (D582R,G42R)
T2 chain: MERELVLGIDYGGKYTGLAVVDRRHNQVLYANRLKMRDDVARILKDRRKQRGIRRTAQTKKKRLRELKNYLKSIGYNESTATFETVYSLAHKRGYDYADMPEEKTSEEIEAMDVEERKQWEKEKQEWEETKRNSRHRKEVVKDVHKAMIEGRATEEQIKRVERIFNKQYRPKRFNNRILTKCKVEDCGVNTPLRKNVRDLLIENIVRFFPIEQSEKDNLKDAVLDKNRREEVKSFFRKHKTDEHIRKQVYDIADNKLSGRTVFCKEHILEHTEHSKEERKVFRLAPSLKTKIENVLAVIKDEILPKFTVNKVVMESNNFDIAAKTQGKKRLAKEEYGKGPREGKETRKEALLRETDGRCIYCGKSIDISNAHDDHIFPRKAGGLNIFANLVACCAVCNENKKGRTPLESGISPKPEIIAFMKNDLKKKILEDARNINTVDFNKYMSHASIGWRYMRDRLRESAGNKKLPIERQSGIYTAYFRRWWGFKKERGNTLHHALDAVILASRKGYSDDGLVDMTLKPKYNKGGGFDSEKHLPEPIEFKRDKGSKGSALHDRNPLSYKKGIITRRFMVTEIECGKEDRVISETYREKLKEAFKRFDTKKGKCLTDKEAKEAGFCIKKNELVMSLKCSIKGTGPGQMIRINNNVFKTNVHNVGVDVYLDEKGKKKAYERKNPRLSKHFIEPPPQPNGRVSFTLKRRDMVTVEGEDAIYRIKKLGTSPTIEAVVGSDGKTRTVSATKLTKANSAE

T3: Nuclease K G42R (G42R)
T3 chain: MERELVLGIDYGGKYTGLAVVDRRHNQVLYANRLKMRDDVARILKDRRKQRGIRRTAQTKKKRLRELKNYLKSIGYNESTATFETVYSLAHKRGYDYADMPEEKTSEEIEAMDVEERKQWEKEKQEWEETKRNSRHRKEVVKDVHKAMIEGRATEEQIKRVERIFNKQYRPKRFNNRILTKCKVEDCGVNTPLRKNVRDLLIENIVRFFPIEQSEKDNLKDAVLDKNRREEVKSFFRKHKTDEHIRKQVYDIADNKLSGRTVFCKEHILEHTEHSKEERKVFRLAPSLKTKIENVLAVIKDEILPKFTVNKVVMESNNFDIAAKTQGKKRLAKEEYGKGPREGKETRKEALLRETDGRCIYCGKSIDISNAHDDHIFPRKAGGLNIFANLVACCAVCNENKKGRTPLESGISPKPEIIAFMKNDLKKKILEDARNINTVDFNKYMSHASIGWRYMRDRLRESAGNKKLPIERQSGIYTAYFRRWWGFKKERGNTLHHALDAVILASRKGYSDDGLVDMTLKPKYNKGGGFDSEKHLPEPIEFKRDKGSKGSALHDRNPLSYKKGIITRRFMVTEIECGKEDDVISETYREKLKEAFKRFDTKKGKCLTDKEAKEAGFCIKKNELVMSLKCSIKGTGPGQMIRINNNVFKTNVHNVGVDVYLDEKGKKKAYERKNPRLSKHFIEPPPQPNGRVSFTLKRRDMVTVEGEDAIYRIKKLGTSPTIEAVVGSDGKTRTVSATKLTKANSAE


Key:
Test in all cases: cell_activity; PAM NGG; HEK293T
Conditions in all cases: tags: N- and C-terminal NLS
[1] = target: T1, Nuclease K D582R/I53R/T734R
Protocol: (§1) This Example describes indel assessment on mammalian targets using nuclease variants of Nuclease K comprising two or more substitutions identified as increasing indel activity in Example 8. 71 combination Nuclease K variants were tested.
(§2) Each Nuclease K variant and RNA guide (see Table 19) was cloned as described in Example 8. HEK293T cells were further transfected, followed by NGS analysis, as described in Example 8. For each target, indel ratios, referring to the percentage of NGS reads comprising indels, were calculated for the reference Nuclease K (SEQ ID NO: 65) and for each Nuclease K variant. The indel ratios shown in Table 20 were calculated as the average of two bioreplicates, each of which contained two technical replicates.

Nuclease K D582R/G42R = target: T2, Nuclease K D582R/G42R
Protocol: as §1, §2

Nuclease K G42R = target: T3, Nuclease K G42R

Binder	activity [1]	activity (Nuclease K D582R/G42R)	binding signal (Nuclease K G42R)
Nuclease K EMX1-T7 guide ; EMX1-T7 target (ssRNA ; dsDNA) RNA: CUUUAGCAAGGGACUAUUCAGUUACAGUUAAGGCUCUGAAAAGAGCCUUAAUUGUAAAACGCCUAUACAGUGAAGGGAUAUACGCUUGGGUUUGUCCAGCCUGAGCCUCUAUGCCAGAAAUGGCGCCUUCAUCGUGGGUUAGGACAUUUAAAUUUAAAAACUAUUCAGCACUGUUUGCUCUUGUCAGCUUGGUGGCAGA DNA 1: CTTTAGCAAGGGACTATTCA DNA 2: TGAATAGTCCCTTGCTAAAG	0.25 indel ratio	0.231 indel ratio	5.3 fold vs Nuclease K
Nuclease K AAVS1-T3 guide ; AAVS1-T3 target (ssRNA ; dsDNA) RNA: UUGUGAGAAUGGUGCGUCCUGUUACAGUUAAGGCUCUGAAAAGAGCCUUAAUUGUAAAACGCCUAUACAGUGAAGGGAUAUACGCUUGGGUUUGUCCAGCCUGAGCCUCUAUGCCAGAAAUGGCGCCUUCAUCGUGGGUUAGGACAUUUAAAUUUAAAAACUAUUCAGCACUGUUUGCUCUUGUCAGCUUGGUGGCAGA DNA 1: TTGTGAGAATGGTGCGTCCT DNA 2: AGGACGCACCATTCTCACAA	0.27 indel ratio	0.221 indel ratio	3.94 fold vs Nuclease K
